Test results from patent publication US20230242675A1 (SHANGHAI EPIMAB BIOTHERAPEUTICS, published 2023).

B1: EM0005-mAb90c (antibody, human IgG1, kappa, V domains shown)
VH: QVQLKQSGAELVRPGSSVKMSCKTSGYTFTSHSINWVKQRPGQGLEWIGYMYIGNGYTEYNEKFKGKATLTSDTSSTTAYMQLSSLTSEDSAIYFCAKITPVVAPYVMDYWGQGTSVTVSS
VL: DIVMTQTHKFMSTSVGDRVSITCKASQDVGTAVAWYQQKPGQSPKLLIYWASTRHTGVPDRFTGSGSGTDFTLTISNVQSEDLADYFCQQYSSYPYTFGGGTKLELKR
notes: Chimeric full-length IgG1; also called EM0005-90c
B2: EM0005-mAb87c (antibody, human IgG1, kappa, V domains shown)
VH: EVQLQQSGPELVKPGASVKISCKASGYSFTDYYINWVKQSPEKSLEWIGETIPNTGGTTYNQKFKAKATLTVDKSSSTAYMQLKSLTSEDSAVYYCARYQSGSPFAYWGQGTPVTVSS
VL: DIVMTQSQKFMSTTVGDRVSITCKASQNVGTAVAWYQQKPGQSPKLLIYSASNRYTGVPDRFTGSGSGTDFTLTISNMQSEDLADYFCQQHYSTPYTFGGGTKLEIKR
notes: Chimeric full-length IgG1; also called EM0005-87c

Columns and labels:
[1] = target: T1, human PD-L1/His fusion protein (human, UniProt Q9NZQ7 19-239); assay: BLI off-rate; test group 2 (reference itself)
Description: (§1) Briefly, antibodies were characterized for affinities and binding kinetics by Octet®RED96 biolayer interferometry (Pall ForteBio LLC). Antibodies were captured by Anti-hIgG Fc Capture (AHC) Biosensors (Pall) at a concentration of 100 nM for 30 seconds. Sensors were then dipped into running buffer (1×pH 7.2 PBS, 0.05% Tween 20, 0.1% BSA) for 60 seconds to check baseline. Binding was measured by dipping sensors into a single concentration of recombinant human PD-L1/His fusion protein (Novoprotein). Dissociation was followed by dipping sensors into running buffer for 1200 seconds. The association and dissociation curves were fitted to a 1:1 Langmuir binding model using ForteBio Data Analysis software (Pall). […] The off-rate ratio serves as a data normalization. Accordingly, in each test group, the off-rate ratios of the humanized antibodies can be compared with that of the chimeric antibody, and the off-rate ratios of each of the humanized antibodies can be compared to one another within all test groups.

[2] = target: T1, human PD-L1/His fusion protein; assay: BLI off-rate; test group 3 (reference itself)
Description: as §1

[3] = target: T2, human PD-L1 on the cell surface (CHO-K1 cells stably expressing human PD-L1) (human, UniProt Q9NZQ7 19-290); assay: FACS on CHO-K1/hPD-L1 cells
T2 construct: whole, on cells; Also used here for PD-L1 on the monocyte-derived dendritic cells of the MLR assay (functional rows); also called CHO-K1/PD-L1; CHOK1-PD-L1
Description: The ability of the purified antibodies to bind to cell membrane human PD-L1 was determined by FACS analysis. CHO-K1 cells stably expressing human PD-L1 (CHO-K1/hPD-L1 cells) were resuspended in PBS containing 2% FBS (FACS buffer) and seeded at 1×10⁵ cells/well into 96-well round-bottomed plates (Corning; Cat. No. 3799). […] The assay plate was then read on a flow cytometer. The data were processed by GraphPad software, and EC50 values were calculated. The EC50 for binding activity according to this FACS analysis is the concentration at which of an antibody induces a response halfway between the baseline and maximum and reflects the binding ability of the antibody.

[4] = target: human PD-L1/Fc Fusion Protein (human); assay: RBA ELISA: coated PD-L1/Fc, competitor biotinylated human PD-1
Description: ELISA plates were coated with 100 μl of 1 μg/ml of human PD-L1/Fc in PBS and incubated overnight at 4° C. Plates were washed four times in washing buffer (PBS containing 0.05% Tween 20) and blocked for 1 hour at 37° C. with 200 μl per well of blocking buffer (1% BSA in PBS containing 0.05% Tween 20). […] A human IgG was included as negative control. The signal was developed by adding streptavidin-HRP (Cat. No. S2468, Sigma) (100 μl/well at 1:5000 dilution) and incubating for 40 minutes at 37° C., followed by washing four times in washing buffer. Then, 100 μl of TMB solution were added per well. Following color development, the reaction was stopped with 1 N HCl, and absorbance at 450 nm was measured. The data were processed by GraphPad software, and IC50 values were calculated. […] The signal reduction induced by antibody samples was normalized to inhibition percentage, where the negative control was 0% inhibition, and the absolute value of signal reduction of each antibody divided by the signal of the negative control equals the percent inhibition by the antibody.

[5] = target: T1, human PD-L1/His fusion protein; assay: BLI off-rate; test group 4 (reference itself)
Description: as §1

[6] = target: T1, human PD-L1/His fusion protein; assay: BLI off-rate; test group 1 (reference itself)
Description: as §1

[7] = target: T3, cynomolgus (cyno) PD-L1/His fusion protein (cynomolgus, UniProt G7PSE7 19-239); assay: ELISA, coated cyno PD-L1 protein
T3 construct: also called cynomolgus PD-L1; not shown: His tag
Description: (§2) The ability of an antibody to bind human or cynomolgus (cyno) PD-L1 (binding activity) was determined by ELISA. ELISA plates were incubated overnight at 4° C. with 50 μl of the human or cyno PD-L1 protein described above diluted in PBS buffer, pH 7.4, at 1 μg/ml. Plates were washed four times in washing buffer (PBS containing 0.05% Tween 20) and blocked for 1 hour at 37° C. with 200 μl per well of blocking buffer (1% BSA in PBS containing 0.05% Tween 20). After blocking buffer was removed, diluted purified antibodies (200 nM and 1:5 serial dilutions to provide 7 concentrations of each antibody) were added to the wells at 100 μl per well and incubated at 37° C. for 1 hour. The wells were washed four times with washing buffer, and anti-human IgG (Fc-specific) HRP-conjugated antibody (Sigma), diluted 1:10,000, was added to the wells at 100 μl per well. The plates were incubated for 1 hour at 37° C. and washed four times in washing buffer. 100 μl of tetramethylbenzidine (TMB) chromogenic solution were added per well. Following color development, the reaction was stopped with 1 N HCl, and absorbance at 450 nm was measured on a VARIOSKAN™ LUX multimode microplate reader (ThermoFisher Scientific, Vataa, Finland). The data were processed by GraphPad software, and EC50 values were calculated. The EC50 for binding activity according to this ELSA is the concentration at which an antibody induces a response halfway between the baseline and maximum and indicates the binding ability of the antibody.

[8] = target: T1, human PD-L1/His fusion protein; assay: BLI Octet RED96, antibody on AHC sensor, single conc. PD-L1/His; test group 1
Description: as §1

[9] = target: T1, human PD-L1/His fusion protein; assay: ELISA, coated human PD-L1 protein, anti-human Fc detection
Description: as §2

[10] = target: T1, human PD-L1/His fusion protein; assay: BLI Octet RED96, antibody on AHC sensor, single conc. PD-L1/His; test group 4
Description: as §1

[11] = target: T1, human PD-L1/His fusion protein; assay: BLI Octet RED96, antibody on AHC sensor, single conc. PD-L1/His; test group 2
Description: as §1

[12] = target: T1, human PD-L1/His fusion protein; assay: BLI Octet RED96, antibody on AHC sensor, PD-L1/His in solution
Description: Binding of antibodies to PD-L1 was also assessed using biolayer interferometry (BLI) using an Octet® RED96 sensor device (Pall ForteBio LLC). Antibodies were captured by anti-hIgG Fc capture (AHC) Biosensors (Pall) at a concentration of 100 nM for 30 seconds. Sensors were then dipped into running buffer (1×pH7.2 PBS, 0.05% Tween 20, 0.1% BSA) for 60 seconds to check the baseline. Binding was measured by dipping sensors into a series of diluted concentrations of recombinant human PD-L1/His fusion protein. Dissociation was followed by dipping sensors into running buffer for 1200 seconds. The association and dissociation curves were fitted to a 1:1 Langmuir binding model using ForteBio Data Analysis software (Pall). The equilibrium dissociation constant KD (molarity) of the reaction between antibodies and related target proteins was then calculated from the kinetic rate constants using the formula KD=koff/kon.

[13] = target: T3, cynomolgus (cyno) PD-L1/His fusion …; assay: BLI Octet RED96, cyno PD-L1
[14] = target: T1, human PD-L1/His fusion protein; assay: BLI Octet RED96, antibody on AHC sensor, single conc. PD-L1/His; test group 3
Description: as §1

T1 sequence (Q9NZQ7 19-239 limits assumed): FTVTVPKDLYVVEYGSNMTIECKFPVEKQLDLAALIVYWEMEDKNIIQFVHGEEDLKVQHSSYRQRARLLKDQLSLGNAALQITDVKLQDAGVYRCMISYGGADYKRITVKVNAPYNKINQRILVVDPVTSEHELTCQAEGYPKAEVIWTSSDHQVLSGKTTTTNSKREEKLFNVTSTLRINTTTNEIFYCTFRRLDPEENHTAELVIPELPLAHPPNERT
Chain of human PD-L1/Fc Fusion Protein (human) (chain, as listed by the source limits assumed): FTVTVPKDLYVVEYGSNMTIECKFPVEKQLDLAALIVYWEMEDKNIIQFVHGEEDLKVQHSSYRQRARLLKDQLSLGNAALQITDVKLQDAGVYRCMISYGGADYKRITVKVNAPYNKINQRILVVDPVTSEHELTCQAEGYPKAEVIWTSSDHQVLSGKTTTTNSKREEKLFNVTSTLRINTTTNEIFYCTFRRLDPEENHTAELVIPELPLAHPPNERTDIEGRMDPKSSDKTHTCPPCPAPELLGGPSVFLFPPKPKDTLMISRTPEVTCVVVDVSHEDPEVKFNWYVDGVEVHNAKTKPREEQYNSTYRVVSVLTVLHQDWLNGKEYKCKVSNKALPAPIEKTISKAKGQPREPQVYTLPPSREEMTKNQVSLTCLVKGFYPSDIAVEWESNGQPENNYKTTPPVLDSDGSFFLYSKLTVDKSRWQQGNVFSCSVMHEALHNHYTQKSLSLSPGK
T3 sequence (G7PSE7 entry or part of it): as the sequence (Q9NZQ7 19-239 limits assumed) above, with A33T, A34S, S62N, R68Q, Q82R, F173L, T185A, T192I, H215L counted along it
T2 sequence (Q9NZQ7 19-290): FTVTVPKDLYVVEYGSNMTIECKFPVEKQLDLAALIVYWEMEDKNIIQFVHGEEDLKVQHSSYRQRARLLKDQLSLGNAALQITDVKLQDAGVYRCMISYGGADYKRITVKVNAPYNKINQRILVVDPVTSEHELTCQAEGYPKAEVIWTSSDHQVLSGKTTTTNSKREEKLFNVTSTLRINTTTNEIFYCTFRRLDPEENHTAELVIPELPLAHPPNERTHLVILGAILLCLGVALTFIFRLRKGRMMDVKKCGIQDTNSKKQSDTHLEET

Row | Binder | Off-Rate Ratio to that of EM0005-90c [1] [%] | Off-Rate Ratio to that of EM0005-90c [2] [%] | EC50 [3] [nM] | IC50 [4] [nM] | Inhibition (percent) [4] [%] | Off-Rate Ratio to that of EM0005-90c [5] [%] | Off-Rate Ratio to that of EM0005-90c [6] [%] | EC50 [7] [nM] | koff [8] [s⁻¹] | EC50 [9] [nM] | koff [10] [s⁻¹] | koff [11] [s⁻¹] | Kd [12] [nM] | Kd [13] [nM] | koff [14] [s⁻¹] | Off-Rate Ratio to that of EM0005-87c [1] [%] | Off-Rate Ratio to that of EM0005-87c [2] [%] | Off-Rate Ratio to that of EM0005-87c [5] [%] | Off-Rate Ratio to that of EM0005-87c [6] [%]
1 | B1 | 100 | 100 | 0.21 | 1.05 | 94.4 | 100 | 100 | 0.12 | 0.000253 | 0.15 | 0.00225 | 0.000342 | 0.681 | 0.837 | 0.000382 | – | – | – | –
2 | B2 | – | – | 0.42 | 0.94 | 93.9 | – | – | 0.06 | 0.00147 | 0.08 | 0.000897 | 0.00104 | 0.981 | 0.493 | 0.00135 | 100 | 100 | 100 | 100
